The results in this text go back to publication PMC7439691, “SRSF1 regulates exosome microRNA enrichment in human cancer cells”.

For data set [1], the target named is T1, GST-SRSF1 (human, UniProt Q07955 1-248). The data set is described as follows: competition; EMSA vs IRD-800 miR-1246; did not alter binding; EMSA: 40 mM Tris pH 8.0, 30 mM KCl, 1 mM MgCl2, 0.001% NP40, 1 mM DTT, 5% glycerol, room temperature 40 min, 4% native gel. The conditions noted are these: protein: recombinant; tags: N-terminal GST (pGEX6P); no self-complementarity.

For data set [2], the target named is T1, GST-SRSF1. The data set is described as follows: competition; EMSA vs IRD-800 miR-1246; concentration-dependent; dissociation constant only in Fig. 6f; EMSA: 40 mM Tris pH 8.0, 30 mM KCl, 1 mM MgCl2, 0.001% NP40, 1 mM DTT, 5% glycerol, room temperature 40 min, 4% native gel. The note with it: protein: recombinant; tags: N-terminal GST (pGEX6P); no self-complementarity. In general terms: Mobility shift assays separate free from complexed probe on a gel.

T1 sequence (Q07955 whole entry): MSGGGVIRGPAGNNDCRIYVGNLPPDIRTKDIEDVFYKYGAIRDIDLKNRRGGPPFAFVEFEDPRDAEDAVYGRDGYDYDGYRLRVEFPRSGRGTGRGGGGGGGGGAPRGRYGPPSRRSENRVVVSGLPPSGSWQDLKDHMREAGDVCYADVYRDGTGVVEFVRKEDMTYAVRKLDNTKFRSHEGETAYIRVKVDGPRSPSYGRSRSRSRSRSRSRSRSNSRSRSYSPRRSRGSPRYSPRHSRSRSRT

For the molecule UUGGACUAGGACUAGGAU (ssRNA) [Decoy mimic 1 (D1)], the binding result with GST-SRSF1 [1] was “no binding”.

For AGGAAGGAAGGAAGGA (ssRNA) [Decoy mimic 2 (D2)], the binding result with GST-SRSF1 [2] was “binds”.
